Results taken from paper PMC5524322, “Species A rotavirus NSP3 acquires its translation inhibitory function prior to stable dimer formation” (PLoS ONE, 2017).

B1: wild type NSP3 (non-structural protein 3) of simian species A rotavirus strain RRV [simian rotavirus A strain RRV] / itself (parent complex)
chain: MESTQQMASSIINSSFEAAVVAATSTLELMGIQYDYNEVYTRVKSKFDLVMDDSGVKNNLIGKAITIDQALNGKFSSAIRNRNWMTDSRTVAKLDEDVNKLRIMLSSKGIDQKMRVLNACFSVKRIPGKSSSIVKCTRLMKDKLERGEVEVDDSFVEEKMEVDTIDWKSRYEQLEKRFESLKHRVNEKYNHWVLKARKVNENMNSLQNVISQQQAHINELQMYNNKLERDLQSKIGSVVSSIEWYLRSMELSDDVKSDIEQQLNSIDQLNPVNAIDDFESILRNLISDYDRLFIMFKGLLQQCNYTYTYE

Variants of: B1
Assay: non-dissociating Western blot (WB-ND) densitometry; parent: 1; read off a plot
chain 1 K168E showed a ratio to parent of about 0.32. Work on chain 1 R184E, chain 1 K188E yielded a ratio to parent of about 0.13. Work on chain 1 Y189A yielded a ratio to parent of about 1.8. chain 1 R170E gave a ratio to parent of about 0.17.
